Five molecules from patent US20040091487A1 (ALBERT EINSTEIN COLLEGE OF MEDICINE OF YESHIVA UNIVERSITY, published 2004) can be followed below.

Sequences and labels used below:
T1: GAL4AC-IN-2 (HIV-2, UniProt P04584 1172-1464)
T1 construct: domain: integrase
T1 sequence: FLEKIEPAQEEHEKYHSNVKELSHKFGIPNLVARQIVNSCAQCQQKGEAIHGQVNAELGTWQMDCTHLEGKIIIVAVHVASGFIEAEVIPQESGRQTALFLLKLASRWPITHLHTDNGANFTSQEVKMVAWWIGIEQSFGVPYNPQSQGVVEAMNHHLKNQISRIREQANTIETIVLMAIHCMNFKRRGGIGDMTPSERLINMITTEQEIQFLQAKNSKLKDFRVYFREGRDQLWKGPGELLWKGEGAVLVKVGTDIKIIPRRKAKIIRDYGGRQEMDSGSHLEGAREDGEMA

B1: GAL4AC (other, UniProt P04386 768-881, looked up)
chain: ANFNQSGNIADSSLSFTFTNSSNGPNLITTQTNSQALSQPIASSNVHDNFMNNEITASKIDDGNNSKPLSPGWTDQTAYNAFGITTGMFNTTTMDDVYNYLFDDEDTPPNPKKE
notes: Negative control of the two-hybrid assay; also called GAL4AC alone
B2: LexADB (other, UniProt P0A7C2 1-87, looked up)
chain: MKALTARQQEVFDLIRDHISQTGMPPTRAEIAQRLGFRSPNAAEEHLKALARKGVIEIVSGASRGIRLLQEEEEGLPLVGRVAAGEP
notes: Negative control of the two-hybrid assay; also called LexADB alone
B3: GAL4-AC fusion of S6 mutant E3 (other)
chain: PEVLVPIRLDMEIDGQKLRDAFTWNMNEKLMTPEMFSEILCGDLDLNPLTFVPAIASAIRQQIESYPTDSILEDQSDQRVIIKLNIHVGNISLVDQFEWDMSEKENSPEKFA
notes: also called pGADNot-E3
B4: GAL4-AC fusion of S6 mutant E10 (other)
chain: B3 chain with G42D, D45G
B5: GAL4-AC fusion of S6 mutant E4 (other)
chain: B3 chain with T32A, G42D

The target of assay [1] is T2, LexADB-IN-1 (HIV-1, UniProt P0A7C2 1-87; P04585 1148-1435).
T2 construct: Yeast two-hybrid fusion
The experiment in a line: yeast two-hybrid, β-Gal staining.
Excerpt: (§1) To determine the specificity of interaction of INI1 with retroviral INs, we first examined the interaction of various INs with INI1/hSNF5 using the yeast two-hybrid system. […] The transformants were stained with X-GAL to detect positive interactions between the various retroviral INs and INI1/hSNF5.

The target in a further assay is T3, LexADB-INI1/hSNF5 (human, UniProt P0A7C2 1-87 (Escherichia coli entry), limits assumed).
T3 construct: also called pSH2-INI1
Kind of assay: yeast two-hybrid, β-Gal staining.

A further assay concerns the target T4, GAL4AC-IN-1 (HIV-1, UniProt P04585 1148-1435).
T4 construct: domain: integrase
The experiment in a line: yeast two-hybrid, β-Gal staining.

The next assay deals with T1, GAL4AC-IN-2. The experiment in a line: yeast two-hybrid, β-Gal staining.
The assay “GAL4AC” concerns the target B1. Kind of assay: yeast two-hybrid, β-Gal staining.
Excerpt: as §1
Assay [2] has as its target T2, LexADB-IN-1. The experiment in a line: reverse yeast two-hybrid, X-Gal staining.

Residue numbers refer to the chain shown, from its start.

Excerpt for GAL4AC-IN-1: as §1
Excerpt for GAL4AC-IN-2: as §1
Excerpt for LexADB-INI1/hSNF5: as §1

On to B1, for which the binding result with LexADB-IN-1 [1] and in the assay with LexADB-INI1/hSNF5 was “no binding” in each case.

Consider B2, for which the binding result in the assay with GAL4AC-IN-1, in the assay with GAL4AC-IN-2 and in the assay with GAL4AC was “no binding” throughout.

Regarding B3, in the assay with LexADB-IN-1 [2], the binding result is listed as “no binding”.

As for B4, the binding result with LexADB-IN-1 [2] is recorded as “no binding”.

Turning to B5, the binding result in the assay with LexADB-IN-1 [2] is listed as “no binding”.
